Experimental findings from paper PMC12090751 (Journal of Virology, 2025) are described below.

The target in assay [1] is HA1 fragment F7 (aa 50-271) displayed on yeast as Aga2 fusion (Influenza A virus H5, Re8 vaccine …, UniProt Q9Q0U6, strain). Nature of the assay: immunostaining of cells or tissue. The note with it: one partner purified.
The target in assay [2] is HA1 F1 (aa 11-329) displayed on yeast as Aga2 fusion (Influenza A virus H5, Re8 vaccine …, UniProt Q9Q0U6, strain). The experiment in a line: immunostaining of cells or tissue. The note with it: one partner purified.

B1: Nb10 with Twin-Strep-tag (VHH)
VHH: QVQLQESGGGSVQAGGSLRLSCSASEYTRSMAWFRQVPGKEREGVAAIDTGNGNTYYPTVDGRFIISRGNAKNSVDLEMNSLTPDDTAIYYCAATQGPLWPTLGTQFSTESYNYWGQGTLVTVSS
On to B1, for which the binding result in assay [1] and in assay [2] was “binds” throughout.
